Assay [1] addresses T1, human ZnT1 with C-terminal FLAG tag (human, UniProt Q9Y6M5 1-507).
T1 construct: Commercial HEK293 lysate (Origene), SDS-denatured on immunoblots; not shown: C-terminal FLAG octapeptide
T1 sequence (looked up): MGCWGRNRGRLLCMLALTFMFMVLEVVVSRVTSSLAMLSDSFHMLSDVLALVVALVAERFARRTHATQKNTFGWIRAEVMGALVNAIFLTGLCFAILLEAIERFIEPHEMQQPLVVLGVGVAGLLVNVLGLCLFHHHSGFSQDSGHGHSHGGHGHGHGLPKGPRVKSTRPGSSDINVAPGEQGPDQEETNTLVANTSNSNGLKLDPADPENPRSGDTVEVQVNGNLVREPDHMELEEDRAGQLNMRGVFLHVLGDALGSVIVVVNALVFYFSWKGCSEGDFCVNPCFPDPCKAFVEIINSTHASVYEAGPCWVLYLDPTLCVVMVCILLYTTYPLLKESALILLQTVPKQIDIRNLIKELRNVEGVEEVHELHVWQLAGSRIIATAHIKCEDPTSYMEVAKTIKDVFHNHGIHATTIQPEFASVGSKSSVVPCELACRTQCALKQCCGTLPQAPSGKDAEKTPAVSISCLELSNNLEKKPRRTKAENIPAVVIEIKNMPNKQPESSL
In words: immunoblot of HEK293 lysates over-expressing FLAG-tagged ZnT homologs. The source says:
(§1) FIG. 7A-7D. mAb binding specificities (FIG. 7A) mAb binding to ZnT8-His immobilized to Ni-NTA plate. Bound mAb20 (red) or mAb39 (magenta) was detected by an HRP-conjugated secondary antibody. Solid lines are least-squares fits of binding datapoints to a one-component binding process. Error bars are standard errors (n=8). (FIG. 7B) SDS-denatured mouse ZnT8-His (labeled as M) and human ZnT8-His (labeled as H) on immunoblots were detected by mAb20 or mAb39 as indicated. […] (FIG. 7C) Detection of endogenous human ZnT8 in EndoC-βH cells by mAb20 or […] immunoblotting. An equal amount of EndoC-βH lysate (5 μg total protein) was loaded to each lane. (FIG. 7D) Immunoblotting of HEK lysates with or with over-expression of a ZnT homolog as indicated. An approximately equal amount of total lysate protein (5 μg) was located to each lane, probed by either mAb20, mAb39, or anti-FALG antibody as indicated. FIG. 8. HTRF response to human ZnT8, mouse ZnT8 and human ZnT3.
(§2) Immunoblotting. SDS-solubilized cell lysate of EndoC-β cells or HEK293 cells over-expressing ZnT8 was subjected to SDS-PAGE and probed with a 1:3000 mAb20 or mAb39, followed by 1:3000 anti-mouse HRP-conjugated secondary antibody (GE Healthcare cat. #NA931V). A duplicated gel was Coomassie-stained to show an equal protein loading for each lane ([…]). To compare the mAb20 or mAb39 reactivities to different ZnT homolog, we used commercial HEK293 lysates with lentivirus-mediated over-expression of ZnT1, ZnT2, ZnT3, ZnT4, ZnT7, ZnT8, ZnT10, each is tagged by a Flag tag at the C-terminus (Origene, catalog nos. LY500001, LC412033, LC423751, LC401170, LY415673, LC428544, LC406320, and LC412886). Approximately equal amounts of total protein (5 μg) was loaded to each lane, and then probed with mAb20, mAb39, or anti-FLAG antibody (Origene, catalog no. TA50011-100) as above. The expression levels of ZnT homologs varied with ZnT1 most abundantly expressed.
(A western blot detects proteins with antibodies after separation by electrophoresis.)

Assay [2] has as its target T2, human ZnT4 with C-terminal FLAG tag (human, UniProt O14863 1-429).
T2 construct: Commercial HEK293 lysate (Origene), SDS-denatured on immunoblots; not shown: C-terminal FLAG octapeptide
T2 sequence (looked up): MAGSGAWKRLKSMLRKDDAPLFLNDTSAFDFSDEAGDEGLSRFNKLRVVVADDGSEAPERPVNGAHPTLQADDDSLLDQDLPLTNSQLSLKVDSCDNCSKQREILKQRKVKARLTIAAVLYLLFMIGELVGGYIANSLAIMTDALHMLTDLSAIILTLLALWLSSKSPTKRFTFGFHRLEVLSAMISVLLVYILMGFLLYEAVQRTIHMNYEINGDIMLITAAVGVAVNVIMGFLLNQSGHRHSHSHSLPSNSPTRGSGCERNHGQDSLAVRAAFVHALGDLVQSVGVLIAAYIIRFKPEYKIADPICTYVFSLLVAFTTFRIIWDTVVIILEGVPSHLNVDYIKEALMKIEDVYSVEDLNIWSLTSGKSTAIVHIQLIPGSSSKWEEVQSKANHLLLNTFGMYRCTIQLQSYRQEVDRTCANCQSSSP
The assay is described as above.
From the text: as §1, §2

The target in assay [3] is T3, mouse ZnT8-His (mouse, UniProt Q8BGG0 1-367, limits assumed).
T3 construct: Over-expressed in HEK293 cells, solubilized with DDM and immobilized on Ni-NTA plates, or SDS-denatured on immunoblots; not shown: C-terminal poly-histidine tag
T3 sequence (looked up): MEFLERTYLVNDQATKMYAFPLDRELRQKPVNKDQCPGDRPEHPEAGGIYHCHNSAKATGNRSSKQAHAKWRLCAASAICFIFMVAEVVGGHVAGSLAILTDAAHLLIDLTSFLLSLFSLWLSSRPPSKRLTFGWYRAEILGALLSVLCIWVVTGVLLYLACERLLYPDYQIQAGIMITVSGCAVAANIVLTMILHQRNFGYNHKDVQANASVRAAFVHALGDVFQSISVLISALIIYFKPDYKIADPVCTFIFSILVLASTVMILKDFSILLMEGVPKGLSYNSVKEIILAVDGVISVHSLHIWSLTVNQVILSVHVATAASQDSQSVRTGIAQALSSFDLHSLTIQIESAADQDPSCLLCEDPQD
Briefly: ELISA titration on ZnT8-His immobilized on Ni-NTA plate; reference is human ZnT8-His.
From the text: as §1
Binding specificities. […] Of note, the epitope-masking effect of ZnT8 immobilization weakened the apparent binding affinities of both mAbs as compared to the affinities determined by flow-cytometry, and such a weakening effect was more pronounced for mAb39, probably due to a closer proximity of the mAb39 epitope to the C-terminal His-tag. Next, we compared the immunoreactivities of mAbs to denatured ZnT8.
For orientation: An ELISA detects its analyte on a solid surface through an enzyme-linked reagent.

Changes are numbered by the printed parent chain.

B1: mAb20 (antibody, V domains shown)
VH: QIQLVQSGPELKKPGETVKISCKASGYIFTNYPMHWVKQAPGKGLKWMGWINTYSGVPTHADDFKGRFAFSLETSANSAFLQINNLKNEDTATYFCTRSRITPTGGYAMDYWGQGTSVTVSS
VL: DVVMTQTPLSLPVSLGDQASISCRSSQSLVHSNGNTYLHWYLQKPGQSPNLLISKVSNRFSGVPERFSGSGSGTDFTLKISRVEAEDLGVYFCSQNTHVPWTFGGGTKLEIKR
notes: Mouse hybridoma mAb purified on protein A/G; In some assays it was labelled with Alexa Fluor 488 or terbium cryptate; also called monoclonal antibody mAb20; anti-ZnT8 mAb20
Take B1: the binding result in assay [1] and in assay [2] was “no binding” each time.

B2: mAb39 (antibody, V domains shown)
VH: QVQLQQPGAELVKPGASVKLSCKASGYSFTTYWMHWVKQRPGQGLEWVGDINPRNGRTNYNEKSKSKATLTVDISSSTVYMQVSSLTSEDSAVYYCAIWSGAMDYWGPGTSVTVSS
VL: B1 VL with A19P, R24K, S32N, N50K, S54Y, E65D, N96T, W101P
notes: Mouse hybridoma mAb purified on protein A/G; In some assays it was labelled with Alexa Fluor 555 or d2; also called monoclonal antibody mAb39; anti-ZnT8 mAb39
Consider B2, for which the binding result in assay [1] and in assay [2] was “no binding” each time. For the same molecule, the “fold difference in apparent binding affinity, mouse against human ZnT8” value in assay [3] is 2 fold.

The values are drawn from patent publication US20210238279A1 (Johns Hopkins, published 2021).
